Strand notation (5' to 3'): a small letter for the sugar, then the base; units joined by * are phosphorothioate-linked, units joined directly phosphodiester-linked; [ ] holds rarer units or linkages, { } end groups; capitals alone tell only the bases. m = 2'-O-methyl; r = 2'-OH (RNA)
B1: G000496: TTR sgRNA modified sequence, Human, SEQ ID NO: 103; guide sequence of CR005304 (nucleic acid)
guide: mG*mG*mC*rCrGrUrGrCrArUrGrUrGrUrUrCrArGrArArGrUrUrUrUrArGrAmGmCmUmAmGmAmAmAmUmAmGmCrArArGrUrUrArArArArUrArArGrGrCrUrArGrUrCrCrGrUrUrArUrCrAmAmCmUmUmGmAmAmAmAmAmGmUmGmGmCmAmCmCmGmAmGmUmCmGmGmUmGmCmU*mU*mU*mU
B2: G000492: TTR sgRNA modified sequence, Human, SEQ ID NO: 99; guide sequence of CR003342 (nucleic acid)
guide: mC*mU*mU*rCrUrCrUrArCrArCrCrCrArGrGrGrCrArCrGrUrUrUrUrArGrAmGmCmUmAmGmAmAmAmUmAmGmCrArArGrUrUrArArArArUrArArGrGrCrUrArGrUrCrCrGrUrUrArUrCrAmAmCmUmUmGmAmAmAmAmAmGmUmGmGmCmAmCmCmGmAmGmUmCmGmGmUmGmCmU*mU*mU*mU
B3: G000498: TTR sgRNA modified sequence, Human, SEQ ID NO: 105; guide sequence of CR003359 (nucleic acid)
guide: mA*mG*mU*rGrArGrUrCrUrGrGrArGrArGrCrUrGrCrArGrUrUrUrUrArGrAmGmCmUmAmGmAmAmAmUmAmGmCrArArGrUrUrArArArArUrArArGrGrCrUrArGrUrCrCrGrUrUrArUrCrAmAmCmUmUmGmAmAmAmAmAmGmUmGmGmCmAmCmCmGmAmGmUmCmGmGmUmGmCmU*mU*mU*mU
B4: G000495: TTR sgRNA modified sequence, Human, SEQ ID NO: 102; guide sequence of CR003343 (nucleic acid)
guide: mC*mA*mG*rArGrGrArCrArCrUrUrGrGrArUrUrCrArCrGrUrUrUrUrArGrAmGmCmUmAmGmAmAmAmUmAmGmCrArArGrUrUrArArArArUrArArGrGrCrUrArGrUrCrCrGrUrUrArUrCrAmAmCmUmUmGmAmAmAmAmAmGmUmGmGmCmAmCmCmGmAmGmUmCmGmGmUmGmCmU*mU*mU*mU
B5: G000497: TTR sgRNA modified sequence, Human, SEQ ID NO: 104; guide sequence of CR003335 (nucleic acid)
guide: mC*mU*mG*rCrUrCrCrUrCrCrUrCrUrGrCrCrUrUrGrCrGrUrUrUrUrArGrAmGmCmUmAmGmAmAmAmUmAmGmCrArArGrUrUrArArArArUrArArGrGrCrUrArGrUrCrCrGrUrUrArUrCrAmAmCmUmUmGmAmAmAmAmAmGmUmGmGmCmAmCmCmGmAmGmUmCmGmGmUmGmCmU*mU*mU*mU
B6: G000491: TTR sgRNA modified sequence, Human, SEQ ID NO: 98; guide sequence of CR003338 (nucleic acid)
guide: mA*mU*mA*rCrCrArGrUrCrCrArGrCrArArGrGrCrArGrGrUrUrUrUrArGrAmGmCmUmAmGmAmAmAmUmAmGmCrArArGrUrUrArArArArUrArArGrGrCrUrArGrUrCrCrGrUrUrArUrCrAmAmCmUmUmGmAmAmAmAmAmGmUmGmGmCmAmCmCmGmAmGmUmCmGmGmUmGmCmU*mU*mU*mU
B7: G000487: TTR sgRNA modified sequence, Human, SEQ ID NO: 94; guide sequence of CR003357 (nucleic acid)
guide: mU*mU*mC*rUrUrUrGrGrCrArArCrUrUrArCrCrCrArGrGrUrUrUrUrArGrAmGmCmUmAmGmAmAmAmUmAmGmCrArArGrUrUrArArArArUrArArGrGrCrUrArGrUrCrCrGrUrUrArUrCrAmAmCmUmUmGmAmAmAmAmAmGmUmGmGmCmAmCmCmGmAmGmUmCmGmGmUmGmCmU*mU*mU*mU
B8: G000485: TTR sgRNA modified sequence, Human, SEQ ID NO: 92; guide sequence of CR003336 (nucleic acid)
guide: mC*mC*mU*rCrCrUrCrUrGrCrCrUrUrGrCrUrGrGrArCrGrUrUrUrUrArGrAmGmCmUmAmGmAmAmAmUmAmGmCrArArGrUrUrArArArArUrArArGrGrCrUrArGrUrCrCrGrUrUrArUrCrAmAmCmUmUmGmAmAmAmAmAmGmUmGmGmCmAmCmCmGmAmGmUmCmGmGmUmGmCmU*mU*mU*mU

How the values were obtained:
[1] = system: potential off-target genomic sites; experiment: Off-target analysis by oligo insertion based assay in primary human hepatocytes (sgRNAs); assay type: cell-based; settings: 100 ng Cas9 mRNA, 25 nM sgRNA, 12.5 nM donor oligo, 48 h
Method: Off-target analysis of sgRNAs targeting TTR was performed in primary human hepatocytes (PHH) as described in Example 5, with the following modifications. PHH were plated at a density of 33,000 cells per well on collagen-coated 96-well plates as described in Example 1. Twenty-four hours post plating, cells were washed with media and transfected using Lipofectamine RNAiMAX (ThermoFisher, Cat. 13778150) as described in Example 1. Cells were transfected with a lipoplex containing 100 ng Cas9 mRNA, immediately followed by the addition of another lipoplex containing 25 nM of the sgRNA and 12.5 nM of the donor oligo (0.3 μL/well). Cells were lysed 48 hours post-transfection and gDNA was extracted and analyzed as further described in Example 5. The data is graphically represented in FIG. 20.
Fewer sites were detected in PHH for every guide tested as compared to the HekCas9 cell line, with no unique sites detected in PHH alone.

TTR = TTR editing in primary human hepatocytes treated with LNP formulated Spy Cas9 mRNA (SEQ ID NO: 2) and sgRNAs, 12.5 ng mRNA; assay type: cell-based; settings: LNP formulated Spy Cas9 mRNA (SEQ ID NO: 2) and sgRNA, 12.5 ng mRNA, 3.9 nM sgRNA, 72 hours
Method: Primary liver hepatocytes. Primary human liver hepatocytes (PHH) and primary cynomolgus liver hepatocytes (PCH) (Gibco) were cultured per the manufacturer's protocol (Invitrogen, protocol 11.28.2012). In brief, the cells were thawed and resuspended in hepatocyte thawing medium with supplements (Gibco, Cat. CM7000) followed by centrifugation at 100 g for 10 minutes for human and 80 g for 4 minutes for cyno. The supernatant was discarded and the pelleted cells resuspended in hepatocyte plating medium plus supplement pack (Invitrogen, Cat. A1217601 and CM3000). Cells were counted and plated on Bio-coat collagen I coated 96-well plates (ThermoFisher, Cat. 877272) at a density of 33,000 cells/well for human or 60,000 cells/well for cyno (or 65,000 cells/well when assaying effects on TTR protein, described further below). Plated cells were allowed to settle and adhere for 6 or 24 hours in a tissue culture incubator at 37° C. and 5% CO2 atmosphere. After incubation cells were checked for monolayer formation and media was replaced with hepatocyte culture medium with serum-free supplement pack (Invitrogen, Cat. A1217601 and CM4000).
In general, the lipid nanoparticle components were dissolved in 100% ethanol with the lipid component of various molar ratios. The RNA cargos were dissolved in 25 mM citrate, 100 mM NaCl, pH 5.0, resulting in a concentration of RNA cargo of approximately 0.45 mg/mL. The LNPs were formulated with a lipid amine to RNA phosphate (N:P) molar ratio of about 4.5 or about 6, with the ratio of mRNA to gRNA at 1:1 by weight.
The LNPs were formed by microfluidic mixing of the lipid and RNA solutions using a Precision Nanosystems NanoAssemblr™ Benchtop Instrument, according to the manufacturer's protocol. A 2:1 ratio of aqueous to organic solvent was maintained during mixing using differential flow rates. After mixing, the LNPs were collected, diluted in water (approximately 1:1 v/v), held for 1 hour at room temperature, and further diluted with water (approximately 1:1 v/v) before final buffer exchange. The final buffer exchange into 50 mM Tris, 45 mM NaCl, 5% (w/v) sucrose, pH 7.5 (TSS) was completed with PD-10 desalting columns (GE). If required, formulations were concentrated by centrifugation with Amicon 100 kDa centrifugal filters (Millipore). The resulting mixture was then filtered using a 0.2 μm sterile filter. The final LNP was stored at −80° C. until further use.
Additional PCR was performed per the manufacturer's protocols (Illumina) to add chemistry for sequencing. The amplicons were sequenced on an Illumina MiSeq instrument. The reads were aligned to a reference genome (e.g., the human reference genome (hg38), the cynomologus reference genome (mf5), the rat reference genome (rn6), or the mouse reference genome (mm10)) after eliminating those having low quality scores. The resulting files containing the reads were mapped to the reference genome (BAM files), where reads that overlapped the target region of interest were selected and the number of wild type reads versus the number of reads which contain an insertion, substitution, or deletion was calculated.
The editing percentage (e.g., the “editing efficiency” or “percent editing” or “indel frequency”) is defined as the total number of sequence reads with insertions/deletions (“indels”) or substitutions over the total number of sequence reads, including wild type.
Lipid nanoparticle formulations of modified sgRNAs targeting human TTR and the cyno matched sgRNA sequences were tested on primary human hepatocytes and primary cyno hepatocytes in a dose response curve. Primary human and cyno hepatocytes were plated as described in Example 1. Both cell lines were incubated at 37° C., 5% CO2 for 24 hours prior to treatment with LNPs. The LNPs used in the experiments detailed in Tables 18-21 were prepared using the Nanoassemblr™ procedure, each containing the specified sgRNA and Cas9 mRNA (SEQ ID NO:2), each having Lipid. […]

Molecule | # Sites in PHH (off-target integration sites detected) [1] | 12.5 ng mRNA, 3.9 nM sgRNA, Avg % Edit (TTR) [%]
B1 | 0 | 30.73
B2 | 5 | 15.87
B3 | 19 | 24.43
B4 | 1 | 23.97
B5 | 3 | 15.10
B6 | 7 | 31.60
B7 | 0 | 17.37
B8 | 3 | 14.23

From patent publication US20230035659A1, “Compositions and Methods for TTR Gene Editing and Treating ATTR Amyloidosis Comprising a Corticosteroid or Use Thereof” (Intellia Therapeutics, Inc., priority 2019, published 2023)
